These are literature values, as cited in article PMC7568816 (Gastroenterology Research and Practice, 2020).

The conditions of the series: due to proteolytic cleavage by dipeptidyl peptidase IV; ref [15]. The protocol:
Endogenous GLP-2 is composed of 33 amino acids and has a short half-life of about 7 minutes due to proteolytic cleavage by dipeptidyl peptidase IV [15]. Chemical substitution of the amino acid alanine to […] at position 2 extends the half-life of GLP-2, and this molecule (teduglutide) is approved for the treatment of short bowel syndrome.

For the substance “Endogenous GLP-2: enteroendocrine hormone composed of 33 amino acids”, the half-life result is listed as “about 7 minutes”.
